Measurements as given in patent publication US20220289865A1 (MINERVA BIOTECHNOLOGIES, published 2022).
Groups on a side chain read outwards from the residue. No end group written: not given here.

Legend:
[1] = biological target: T1, recombinant human NME7-AB (human, UniProt Q9Y5B8 92-376); assay: sandwich ELISA, PSMGFR-His bound to NME7 held by plate-bound PSMGFR, anti-Histag-HRP
T1 construct: Expressed in E. coli, lacks the DM10 domain, monomer; also called NME7 monomer
T1 sequence: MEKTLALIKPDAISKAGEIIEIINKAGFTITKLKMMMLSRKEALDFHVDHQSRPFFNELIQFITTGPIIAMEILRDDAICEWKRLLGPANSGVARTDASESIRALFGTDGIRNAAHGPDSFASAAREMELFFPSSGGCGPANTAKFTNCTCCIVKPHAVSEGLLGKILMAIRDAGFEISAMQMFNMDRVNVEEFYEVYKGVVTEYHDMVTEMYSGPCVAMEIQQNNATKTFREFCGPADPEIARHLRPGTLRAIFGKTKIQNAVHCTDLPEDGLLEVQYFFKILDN
Method: (§1) The PSMGFR peptide bearing a C-terminal Cysteine (PSMGFR-Cys) was covalently coupled to BSA using Imject Maleimide activated BSA kit (Thermo Fisher). PSMGFR-Cys coupled BSA was diluted to 10 ug/mL in 0.1M carbonate/bicarbonate buffer pH 9.6 and 50 uL was added to each well of a 96 well plate. After overnight incubation at 4° C., the plate was washed twice with PBS-T and a 3% BSA solution was added to block remaining binding site on the well. After 1 h at RT the plate was washed twice with PBS-T and NME7, diluted in PBS-T+1% BSA, was added at different concentrations. After 1 h at RT the plate was washed 3× with PBS-T and anti-NM23-H7 (B-9, Santa Cruz Biotechnology), diluted in PBS-T+1% BSA, was added at 1/500 dilution. […] After 1 h at RT the plate was washed 3× with PBS-T and binding of NME7 was measured at 415 nm using ABTS solution (Pierce). […]
(§2) After 1 h at RT the plate was washed 3× with PBS-T and HisTagged PSMGFR peptide (PSMGFR-His) or biotinylated PSMGFR peptide (PSMGFR-biotin), diluted in PBS-T+1% BSA, was added at different concentration. […] After 1 h at RT the plate was washed 3× with PBS-T and binding of PSMGFR peptide to NME7 already bound to another PSMGFR peptide (which could not signal by anti-His antibody or by streptavidin) coupled BSA was measured at 415 nm using a ABTS solution (Pierce).

[2] = biological target: T1, recombinant human NME7-AB; assay: sandwich ELISA, PSMGFR-biotin bound to NME7 held by plate-bound PSMGFR, streptavidin-HRP
Method: as §1, §2

[3] = biological target: T1, recombinant human NME7-AB; assay: sandwich ELISA
Method: as §1, §2

[4] = biological target: T1, recombinant human NME7-AB; assay: ELISA, PSMGFR-Cys coupled BSA on the plate, NME7 detected with B-9
Method: The PSMGFR peptide bearing a C-terminal Cysteine (PSMGFR-Cys) was covalently coupled to BSA using Imject Maleimide activated BSA kit (Thermo Fisher). PSMGFR-Cys coupled BSA was diluted to 10 ug/mL in 0.1M carbonate/bicarbonate buffer pH 9.6 and 50 uL was added to each well of a 96 well plate. After overnight incubation at 4° C., the plate was washed twice with PBS-T and a 3% BSA solution was added to block remaining binding site on the well. After 1 h at RT the plate was washed twice with PBS-T and NME7, diluted in PBS-T+1% BSA, was added at different concentrations. After 1 h at RT the plate was washed 3× with PBS-T and anti-NM23-H7 (B-9, Santa Cruz Biotechnology), diluted in PBS-T+1% BSA, was added at 1/500 dilution. After 1 h at RT the plate was washed 3× with PBS-T and goat anti mouse-HRP, diluted in PBS-T+1% BSA, was added at 1/3333 dilution. After 1 h at RT the plate was washed 3× with PBS-T and binding of NME7 was measured at 415 nm using ABTS solution (Pierce).

B1: His-tagged PSMGFR peptide (peptide)
peptide: GTINVHDVETQFNQYKTEAASRYNLTISDVSVSDVPFPFSAQSGA
notes: also called PSMGFR-His; not shown: histidine tag
binding result [1]: binds

GTINVHDVETQFNQYKTEAASRYNLTISDVSVSDVPFPFSAQSGA (also: biotinylated (position not given here), also called PSMGFR-biotin) [biotinylated PSMGFR peptide]
binding result [2]: binds

B2: MUC1* extracellular domain peptide (PSMGFR peptide) (peptide)
peptide: B1 peptide
notes: also called synthetic MUC1* peptide; surface immobilized MUC1* peptide
binding result [3]: binds

B3: PSMGFR peptide bearing a C-terminal Cysteine, coupled to BSA (peptide)
peptide: GTINVHDVETQFNQYKTEAASRYNLTISDVSVSDVPFPFSAQSGAC([maleimide-BSA])
notes: also called PSMGFR-Cys; PSMGFR-Cys coupled BSA
binding result [4]: binds
